# According to the DeepSol protein solubility set:
# Assay: soluble on expression in E. coli; label from the status in PepcDB or PDB records
row,Sequence,soluble on expression in E. coli
1,MKSMQDYRTIMTGNDAVAYGAKLARVKLISAYPITPQTTIVEKLASMIANDELDAKYVKVESEHSALATVVSSELAGVRSYTATSSHGLLYMHEMLHWASGQRLPIVMSVVNRAIGPPWNIWADQSDTMNQKDTGWMQVYCESNQEALDTIIMGYKIAENKDVLLPLMSMEDAFILSHTSEPVTIRDQESVNEYLPDLDLPFKINEEHPMGYGSYDTPDGSFMELKKDMVDSMQKAKRIIEDETRKFNEMFGTEYGGLIEKYRMEDADYAIIATGTIASTARYVVDILRKKGEKVGLIRIRYFRPFPYEEILSSLKYVKAAGVIDRSVSFSSGGPTYVEIVQGLYGKLNVPLSSFIAGIGGRDVRIQDIENIYEMLKSGNSGTYWINVKEVR,not soluble
2,MSLAKPTDIRIRDVRISAEHINYRTPIKFGGRVVNDVTLLNVALDVETADGRRGSGFGSMPMGNVWAWPTSTTSGDATLQAMVDIGTAIAEAAPQLDLSGHPLELTAAAHSQYGSIASTIAHKANITEAVPKLATLVAASPVEAAIHDAYGKALGLNSYNVLGADFANTDLASYLSPEFAGEYLDRYTLRTPQPQMPLYHLIGALDPLDQDELQNPVGDGLPETLGDWITADGLTHLKIKLNGDNLDWDVARVAKIDAVAIDAQAKRGCKAWQYSLDFNERCPNVQYILDFLAKLSESSPEALDRVQYIEQPTSRDLRANPENRMHAAAKIKPVVIDESLIDYESLLLAREQGYSGVALKACKGQSEALLMGAAAQKFGMFLCVQDLTCPGASFLHSASLAARMPTIAAIEGNGRQYCPAGNAEWAKRYPSMFDITQGYVGTAVLTEPGLGYEGHHHHHH,not soluble
3,MATRLNISFDSDLLESISSEFDLRAPNKEALRQLVFTLDGDYEPSIMQVLNLATGVGKTYLMAAFVEYLRRQGVGNVVIVTPGKTVQAKTVQNFTPGSPRYITGSVVPPEVVTPQDYSAWVARQNGAAQLSFGHEVPILAFIFNIQQLIAPKSTEGDTHGNTQDAMRRKPRRFDENAGVLFDYLKGLDDLVVIADESHLYGSSAIAFNAALKELDPAATIGLTASVDKKSDHVIYHYPLFRAIQDKYVKAPVLAFRKTGYGTDEASEEQQLRDALQLRSIKQVYYDSFAASENRKHVNAVVFVVCSDVDHATQVTELLRSPEYLGNDDAVLQVDSKHEDELTQRRLNELDRPHSPVLAVVSVNKLKEGWDVRNIAVVVTLRAMASEVLTQQTMGRGLRLPFGHYTGVWQIDQLDIIAHQSFTELLNAENVLHQFGLEEAVADLDKAQVEAAILKAAETATSPRLGTSLTDTGVIQPGDVAAHEAGVWLIGDSSNSDDLQAGIVPVGGENSTRTPSVGVREITDPAPEGGTGWELVSIERNPAFADVTYQFPVTTMTVQQPSIDLSEIGDDTIEQAARRVTSAGDVLLRKEIIAVLGKKLRAEDRESAEVDSVHVDEDDAKNALVKLVLNMSLVPKTEQTARYVAAFLVPKFMQSVMFSGWTVKSLDSARTELLKLIQNYTVETLRSTREVPSIHPKSMPSNGYTLPLGQKVHDQIETREQFVRSQVYGGWFKSLFAEESFDSFTGEYQLARLLNTSPGIVWWHRLHPQDQAFVFYNAKDRYFPDFVAMDVNGVHWIIEGKSERGRDDAQVQAKRKAAEALVRRLVAEDAYADQLWGYLIAYEQDIARADSWEDLKAFASPVNNAL,not soluble
4,MSETELVGKDELLKAMTMCNSCPDFNLNDLRGKGDNNYQLYDWLIHNLPTAQYVLGKLVELIFSNNLTTGDEKQDEILNNFLYGQTNPEGVTNYHVLVQSIKESIVYGRSGLRFLSKDDGLINVKCNHFGVAQILNKEHYGYKELIGFVIDKKGRAITDVDLREGEIDSEEYFKKGIFVFKNNDNILLPPEKFVNLRVDTSTPKGSSVFDSDIQRVLLIASVYKRLLYDIEYDGAGRLIFWADNANSNEESSNNFLNDTESATKRRQDKYKKEVEEIMKLVKDSNSTSVLAVSNAFKKMDHLPRVTKATEFLSYLNQEGEIMAQVFGVPNVLLGLGKISGNISMEKVIDNAMLNSIIPLRENIATQISSILTNNLKVPKVYFDKYELKSQSDINDRRLKVLTVAERLKALGKEDLANKIIEEEIQL,not soluble
5,MPNRHGSPRSSTRWAGLAIIALACLLSACSSTPTRSLTSRDTSGQRTHGAAINDPSAGLEEISIEAMALVGTPYRYGGNTPDSGFDCSGLVRYVVQRAASVNLPRTAAEMGTRGFALERRDVASGDLVFFNTTGRPNSHVGIYVGQNRFVHAPATGGTVRLEDMSKRYWASRYMGARRVVAVSNLPDLPASPAAATQSIAAGAAAPATAPAHANDDDPLGTLARARGTESSPLMSTRNAAPVVVPPADDDPIARFATQ,soluble
